The experiment addresses T1, mouse CNTN4 overexpressed on 293F cells (mouse, UniProt Q69Z26 19-1000).
T1 construct: whole, on cells; Overexpressed on 293F cells; the construct is not described; also called Mouse CNTN4 cell; mouse antigen-overexpressing 293F cells
T1 sequence (looked up): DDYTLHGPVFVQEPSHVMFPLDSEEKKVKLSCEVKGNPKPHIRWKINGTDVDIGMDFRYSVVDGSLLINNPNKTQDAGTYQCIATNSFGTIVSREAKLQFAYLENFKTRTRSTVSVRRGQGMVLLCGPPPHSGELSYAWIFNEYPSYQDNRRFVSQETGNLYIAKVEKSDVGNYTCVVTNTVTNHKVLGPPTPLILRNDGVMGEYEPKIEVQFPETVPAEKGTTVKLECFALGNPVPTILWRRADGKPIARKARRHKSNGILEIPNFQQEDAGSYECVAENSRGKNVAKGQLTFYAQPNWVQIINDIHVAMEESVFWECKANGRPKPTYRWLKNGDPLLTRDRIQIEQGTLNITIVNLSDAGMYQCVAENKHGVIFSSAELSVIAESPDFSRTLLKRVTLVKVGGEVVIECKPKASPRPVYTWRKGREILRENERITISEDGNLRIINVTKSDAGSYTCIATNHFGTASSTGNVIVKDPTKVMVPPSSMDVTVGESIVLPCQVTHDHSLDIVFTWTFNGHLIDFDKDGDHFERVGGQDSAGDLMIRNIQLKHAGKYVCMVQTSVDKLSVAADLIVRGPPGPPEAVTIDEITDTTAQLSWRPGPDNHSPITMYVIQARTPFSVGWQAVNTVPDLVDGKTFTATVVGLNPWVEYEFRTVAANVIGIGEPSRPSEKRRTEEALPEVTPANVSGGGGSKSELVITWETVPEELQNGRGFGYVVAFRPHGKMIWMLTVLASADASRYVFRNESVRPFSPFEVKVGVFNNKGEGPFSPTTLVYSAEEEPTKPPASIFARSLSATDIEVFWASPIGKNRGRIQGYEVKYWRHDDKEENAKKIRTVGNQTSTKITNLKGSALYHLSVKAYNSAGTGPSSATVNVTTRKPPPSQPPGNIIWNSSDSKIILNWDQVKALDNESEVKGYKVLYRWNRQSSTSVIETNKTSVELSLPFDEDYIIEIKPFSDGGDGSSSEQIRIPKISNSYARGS
Nature of the experiment: FACS, scFv periplasm on mouse CNTN4-overexpressing 293F cells, PE anti-His detection. (In general: A flow cytometer gives signals particle by particle.)

A word on the EC50: it is the concentration needed to bring the measured effect to its halfway point. The low end stands for an effect from little substance, the high end for a need for much substance.

B1: A104 scFv (scFv, V domains shown)
VH: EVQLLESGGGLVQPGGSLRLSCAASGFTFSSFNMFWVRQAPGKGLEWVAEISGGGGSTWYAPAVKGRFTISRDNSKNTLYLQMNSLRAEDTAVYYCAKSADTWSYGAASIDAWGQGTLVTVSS
VL: ELTQDPAVSVALGQTVRITCSGSSGSYGWYQQKPGQAPVLVIYDNTNRPSGIPDRFSGSSSGNTASLTITGAQAEDEADYYCGGYDGSTDVFGGGTKLTVL
In the case of B1, the EC50 came out at 29.4 nM and the “Top MFI” value was 2050 MFI.

(Values after patent publication US20260234228A1 (GENOME, published 2026).)
